Source: PMC5524996

Target: IssA (iron-sulfur storage protein A), native thioferrate-bound nanoparticle form from Pyrococcus furiosus (Pyrococcus furiosus)
Assay: negative stain TEM; purified native IssA, untreated (20-300 nm) and after 3 M guanidinium chloride, 0.5 mM EDTA, 25 mM DTT (16-22 nm spheres); composition estimated from the volume of a 20 nm sphere, densities and the Fe:protein ratio

stoichiometry N: 170
Substance: IssA (iron-sulfur storage protein A), native thioferrate-bound nanoparticle form from Pyrococcus furiosus (natural protein)
